Assay [1] has as its target T1, human DLL3 endogenously expressed on SCLC tumor cell lines SHP77 and NCI-H82 (human, UniProt Q9NYJ7 27-618).
T1 construct: whole, on cells; also called human DLL3 expressed on tumor cells
T1 sequence (looked up): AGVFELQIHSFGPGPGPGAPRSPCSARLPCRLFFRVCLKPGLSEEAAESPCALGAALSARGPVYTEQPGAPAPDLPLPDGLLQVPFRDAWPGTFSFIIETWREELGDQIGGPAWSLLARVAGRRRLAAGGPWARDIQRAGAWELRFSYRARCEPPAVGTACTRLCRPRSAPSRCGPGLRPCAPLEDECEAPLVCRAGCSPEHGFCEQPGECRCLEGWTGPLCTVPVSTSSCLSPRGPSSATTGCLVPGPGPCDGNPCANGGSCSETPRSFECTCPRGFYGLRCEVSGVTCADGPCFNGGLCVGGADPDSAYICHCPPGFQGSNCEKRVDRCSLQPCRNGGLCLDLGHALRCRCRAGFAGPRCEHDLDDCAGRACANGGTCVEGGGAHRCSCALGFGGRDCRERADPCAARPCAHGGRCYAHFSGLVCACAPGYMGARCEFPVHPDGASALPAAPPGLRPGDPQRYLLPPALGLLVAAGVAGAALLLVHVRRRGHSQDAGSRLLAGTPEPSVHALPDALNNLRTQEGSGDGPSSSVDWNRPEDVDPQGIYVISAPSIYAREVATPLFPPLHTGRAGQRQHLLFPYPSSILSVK
In words: flow cytometry on SHP77 cells. (A flow cytometer gives signals particle by particle.)

Assay [2] has as its target T2, ECD of human DLL3 over-expressed on HEK293 cells (human, UniProt Q9NYJ7 27-492).
T2 construct: extracellular domain; also called HEK293-hDLL3; human DLL3 expressed on HEK293 cells
T2 sequence (looked up): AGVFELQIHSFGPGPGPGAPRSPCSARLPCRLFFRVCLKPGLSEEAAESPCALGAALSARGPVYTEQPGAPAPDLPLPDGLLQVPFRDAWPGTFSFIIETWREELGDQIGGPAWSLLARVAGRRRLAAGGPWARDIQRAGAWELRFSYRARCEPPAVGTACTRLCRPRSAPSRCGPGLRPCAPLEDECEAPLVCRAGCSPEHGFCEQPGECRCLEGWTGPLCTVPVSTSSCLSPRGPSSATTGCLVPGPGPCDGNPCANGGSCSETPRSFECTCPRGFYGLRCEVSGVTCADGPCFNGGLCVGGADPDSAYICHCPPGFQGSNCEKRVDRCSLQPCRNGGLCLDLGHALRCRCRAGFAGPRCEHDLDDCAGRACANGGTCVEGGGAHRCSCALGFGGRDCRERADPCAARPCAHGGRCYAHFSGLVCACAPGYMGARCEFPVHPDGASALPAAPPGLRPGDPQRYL
In words: flow cytometry on HEK293-hDLL3 cells.

In assay [3] the target is T3, ECD of human DLL3 protein fused with his tag (Acro Bio, Cat. No. DL3-H52H4) (human, UniProt Q9NYJ7 27-492).
T3 construct: range 27-492; Bought protein; also called hDLL3-his; human DLL3-his protein; not shown: his tag
T3 sequence (looked up): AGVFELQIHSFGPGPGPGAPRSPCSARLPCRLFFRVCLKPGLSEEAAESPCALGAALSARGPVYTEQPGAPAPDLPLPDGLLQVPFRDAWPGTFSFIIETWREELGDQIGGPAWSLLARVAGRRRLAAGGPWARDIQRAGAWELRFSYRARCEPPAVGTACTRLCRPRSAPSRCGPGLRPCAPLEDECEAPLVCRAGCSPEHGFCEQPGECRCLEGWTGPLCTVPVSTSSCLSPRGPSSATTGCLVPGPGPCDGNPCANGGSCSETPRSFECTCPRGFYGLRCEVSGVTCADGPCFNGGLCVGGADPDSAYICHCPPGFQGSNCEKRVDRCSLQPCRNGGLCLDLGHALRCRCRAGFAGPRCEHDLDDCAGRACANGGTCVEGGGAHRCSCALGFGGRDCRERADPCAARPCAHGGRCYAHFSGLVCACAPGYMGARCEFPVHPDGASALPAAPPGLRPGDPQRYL
In words: ELISA, hDLL3-his coated. A general note: ELISA stands for enzyme-linked immunosorbent assay.

Assay [4] addresses T4, human full length DLL1 expressed on CHO-K1 cells (human, UniProt O00548 18-723).
T4 construct: whole, on cells; also called CHO-K1-hDLL1
T4 sequence (looked up): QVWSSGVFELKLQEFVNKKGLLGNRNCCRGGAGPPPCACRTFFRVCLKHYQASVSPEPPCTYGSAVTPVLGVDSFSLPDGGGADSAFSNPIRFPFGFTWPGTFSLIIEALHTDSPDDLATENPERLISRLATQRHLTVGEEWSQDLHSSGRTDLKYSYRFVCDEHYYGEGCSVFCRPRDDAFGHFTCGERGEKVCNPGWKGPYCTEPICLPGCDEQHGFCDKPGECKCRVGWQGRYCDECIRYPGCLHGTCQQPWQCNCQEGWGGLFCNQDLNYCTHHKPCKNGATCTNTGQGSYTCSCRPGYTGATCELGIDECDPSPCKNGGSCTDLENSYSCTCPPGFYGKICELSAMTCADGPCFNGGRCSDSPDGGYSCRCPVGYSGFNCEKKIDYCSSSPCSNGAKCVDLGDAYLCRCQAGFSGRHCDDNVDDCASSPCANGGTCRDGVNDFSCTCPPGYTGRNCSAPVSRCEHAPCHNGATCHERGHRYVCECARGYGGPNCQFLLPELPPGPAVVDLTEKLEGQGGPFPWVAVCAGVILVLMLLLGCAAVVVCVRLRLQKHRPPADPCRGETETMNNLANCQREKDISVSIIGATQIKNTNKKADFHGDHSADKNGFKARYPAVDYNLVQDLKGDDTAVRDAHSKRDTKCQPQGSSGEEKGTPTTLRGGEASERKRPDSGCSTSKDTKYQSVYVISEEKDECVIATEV
In words: flow cytometry on CHO-K1-hDLL1 cells.

For assay [5], the target named is T5, human full length DLL4 expressed on CHO-K1 cells (human, UniProt Q9NR61 27-685).
T5 construct: whole, on cells; also called CHO-K1-hDLL4
T5 sequence (Q9NR61 27-685): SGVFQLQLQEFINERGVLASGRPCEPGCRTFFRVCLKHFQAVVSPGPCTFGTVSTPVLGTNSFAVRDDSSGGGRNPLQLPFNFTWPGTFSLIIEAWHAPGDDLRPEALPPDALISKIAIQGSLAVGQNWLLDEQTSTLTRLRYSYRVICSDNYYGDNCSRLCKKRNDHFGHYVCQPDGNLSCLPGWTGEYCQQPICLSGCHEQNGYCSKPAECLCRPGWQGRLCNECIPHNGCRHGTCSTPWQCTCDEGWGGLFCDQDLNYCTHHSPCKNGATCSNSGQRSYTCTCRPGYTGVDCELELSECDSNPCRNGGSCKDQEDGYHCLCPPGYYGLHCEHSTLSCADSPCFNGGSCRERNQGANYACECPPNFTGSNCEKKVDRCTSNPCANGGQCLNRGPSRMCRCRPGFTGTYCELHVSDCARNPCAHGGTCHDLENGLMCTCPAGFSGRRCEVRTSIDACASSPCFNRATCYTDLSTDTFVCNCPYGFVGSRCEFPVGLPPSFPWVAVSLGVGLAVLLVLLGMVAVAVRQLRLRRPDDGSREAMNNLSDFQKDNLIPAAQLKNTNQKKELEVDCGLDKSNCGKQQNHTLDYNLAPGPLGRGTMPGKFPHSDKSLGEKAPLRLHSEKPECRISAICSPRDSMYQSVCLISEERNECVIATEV
In words: flow cytometry on CHO-K1-hDLL4 cells.

For assay [6], the target named is T1, human DLL3 endogenously expressed on …. The assay is described as follows: flow cytometry on SHP77 and NCI-H82 cells.

B1: 310P3C5-z15p10 PTM removed humanized antibody (antibody, V domains shown)
VH: QVQLVQSGAEVKKPGASVKVSCKASGYTFTDFYMNWVKQAPGQGLEWIGDANPNAGGTTHNPRFKGRATLTVDKSASTAYMELRSLRSEDTAVYYCARGGLPGDFDYWGQGTTVTVSS
VL: DIQMTQSPSSLSASVGDRVTITCKASEDIYNRLAWYQQKPGKAPKLLISGVTSLETGVPSRFSGSGSGTDFTFTISSLQPEDIATYYCQQYWSFPWTFGGGTKVEIK
notes: variable regions fused to the constant region of human IgG1
As for B1, the binding result in assay [1] and in assay [2] was “binds” in each case.

B2: 310P3C5-z8 humanized antibody (antibody, human IgG1, kappa, V domains shown)
VH: QVQLVQSGAEVKKPGASVKVSCKASGYTFTDFYMNWVRQAPGQGLEWIGDANPNNGGTTHNPRFKGQATLTVDKSTSTAYMELRSLRSDDTAVYYCARGGLPGDFDYWGQGTTVTVSS
VL: DIQMTQSPSSVSASVGDRVTITCKASEDIYNRLAWYQQKPGKAPKLLISGVTSLETGVPSRFSGSGSGTDFTLTISSLQPEDFATYYCQQYWSFPWTFGGGTKVEIKR
notes: HU-VH1-4 with HU-VL1-2; human IgG1
With B2, the binding result in assay [3] is on record as “binds”; in assay [4], “no binding”; in assay [5] it was “no binding”; in assay [2], “binds”; in assay [6] it was “binds”.

B3: 310P3C5-z11 humanized antibody (antibody, human IgG1, kappa, V domains shown)
VH: QVQLVQSGAEVKKPGASVKVSCKASGYTFTDFYMNWVRQAPGQGLEWIGDANPNNGGTTHNPRFKGRATLTVDTSTSTAYMELRSLRSDDTAVYYCARGGLPGDFDYWGQGTTVTVSS
VL: DIQMTQSPSSVSASVGDRVTITCKASEDIYNRLAWYQQKPGKAPKLLISGVTSLETGVPSRFSGSGSGKDFTLTISSLQPEDFATYYCQQYWSFPWTFGGGTKVEIKR
notes: HU-VH1-3 with HU-VL1-3; human IgG1
Take B3: the binding result in assay [3] is recorded as “binds”.

B4: 310P3C5-z4 humanized antibody (antibody, human IgG1, kappa, V domains shown)
VH: QVQLVQSGAEVKKPGASVKVSCKASGYTFTDFYMNWVRQAPGQGLEWIGDANPNNGGTTHNPRFKGQATLTVDKSTSTAYMELRSLRSDDTAVYYCARGGLPGDFDYWGQGTTVTVSS
VL: DIQMTQSPSSVSASVGDRVTITCKASEDIYNRLAWYQQKPGKAPKLLIYGVTSLETGVPSRFSGSGSGTDFTLTISSLQPEDFATYYCQQYWSFPWTFGGGTKVEIKR
notes: HU-VH1-4 with HU-VL1-1; human IgG1
Consider B4, for which the binding result in assay [3] is given as “binds”; in assay [4], “no binding”; in assay [5] it was “no binding”; in assay [2], “binds”; in assay [6] it was “binds”.

B5: 310P3C5-z13 humanized antibody (antibody, human IgG1, kappa, V domains shown)
VH: QVQLVQSGAEVKKPGASVKVSCKASGYTFTDFYMNWVRQAPGQGLEWMGDANPNNGGTTHNPRFKGRVTMTTDTSTSTAYMELRSLRSDDTAVYYCARGGLPGDFDYWGQGTTVTVSS
VL: DIQMTQSPSSLSASVGDRVTITCKASEDIYNRLAWYQQKPGKAPKLLISGVTSLETGVPSRFSGSGSGTDFTFTISSLQPEDIATYYCQQYWSFPWTFGGGTKVEIKR
notes: HU-VH1-1 with HU-VL2; human IgG1
As to B5, the binding result in assay [3] is listed as “binds”.

B6: 310P3C5-z15p21 PTM removed humanized antibody (antibody, V domains shown)
VH: QVQLVQSGAEVKKPGASVKVSCKASGYTFTDFYMNWVKQAPGQGLEWIGDANPNYGGTTHNPRFKGRATLTVDKSASTAYMELRSLRSEDTAVYYCARGGLPGDFDYWGQGTTVTVSS
VL: DIQMTQSPSSLSASVGDRVTITCKASEDIYNRLAWYQQKPGKAPKLLISGVTSLETGVPSRFSGSGSGTDFTFTISSLQPEDIATYYCQQYWSFPWTFGGGTKVEIK
notes: as for B1
In the case of B6, the binding result in assay [1] and in assay [2] was “binds” each time.

B7: 310P3C5-z15p18 PTM removed humanized antibody (antibody, V domains shown)
VH: QVQLVQSGAEVKKPGASVKVSCKASGYTFTDFYMNWVKQAPGQGLEWIGDANPNRGGTTHNPRFKGRATLTVDKSASTAYMELRSLRSEDTAVYYCARGGLPGDFDYWGQGTTVTVSS
VL: DIQMTQSPSSLSASVGDRVTITCKASEDIYNRLAWYQQKPGKAPKLLISGVTSLETGVPSRFSGSGSGTDFTFTISSLQPEDIATYYCQQYWSFPWTFGGGTKVEIK
notes: as for B1
Take B7: the binding result in assay [1] and in assay [2] was “binds” in each case.

B8: 310P3C5-z15p20 PTM removed humanized antibody (antibody, V domains shown)
VH: QVQLVQSGAEVKKPGASVKVSCKASGYTFTDFYMNWVKQAPGQGLEWIGDANPNWGGTTHNPRFKGRATLTVDKSASTAYMELRSLRSEDTAVYYCARGGLPGDFDYWGQGTTVTVSS
VL: DIQMTQSPSSLSASVGDRVTITCKASEDIYNRLAWYQQKPGKAPKLLISGVTSLETGVPSRFSGSGSGTDFTFTISSLQPEDIATYYCQQYWSFPWTFGGGTKVEIK
notes: as for B1
For the molecule B8, the binding result in assay [1] and in assay [2] was “binds” in each case.

B9: 310P3C5-z15p19 PTM removed humanized antibody (antibody, V domains shown)
VH: QVQLVQSGAEVKKPGASVKVSCKASGYTFTDFYMNWVKQAPGQGLEWIGDANPNVGGTTHNPRFKGRATLTVDKSASTAYMELRSLRSEDTAVYYCARGGLPGDFDYWGQGTTVTVSS
VL: DIQMTQSPSSLSASVGDRVTITCKASEDIYNRLAWYQQKPGKAPKLLISGVTSLETGVPSRFSGSGSGTDFTFTISSLQPEDIATYYCQQYWSFPWTFGGGTKVEIK
notes: as for B1
Turning to B9, the binding result in assay [1] and in assay [2] was “binds” throughout.

B10: 310P3C5-z15p13 PTM removed humanized antibody (antibody, V domains shown)
VH: QVQLVQSGAEVKKPGASVKVSCKASGYTFTDFYMNWVKQAPGQGLEWIGDANPNHGGTTHNPRFKGRATLTVDKSASTAYMELRSLRSEDTAVYYCARGGLPGDFDYWGQGTTVTVSS
VL: DIQMTQSPSSLSASVGDRVTITCKASEDIYNRLAWYQQKPGKAPKLLISGVTSLETGVPSRFSGSGSGTDFTFTISSLQPEDIATYYCQQYWSFPWTFGGGTKVEIK
notes: as for B1
With B10, the binding result in assay [1] and in assay [2] was “binds” throughout.

B11: 310P3C5-z15p12 PTM removed humanized antibody (antibody, V domains shown)
VH: QVQLVQSGAEVKKPGASVKVSCKASGYTFTDFYMNWVKQAPGQGLEWIGDANPNFGGTTHNPRFKGRATLTVDKSASTAYMELRSLRSEDTAVYYCARGGLPGDFDYWGQGTTVTVSS
VL: DIQMTQSPSSLSASVGDRVTITCKASEDIYNRLAWYQQKPGKAPKLLISGVTSLETGVPSRFSGSGSGTDFTFTISSLQPEDIATYYCQQYWSFPWTFGGGTKVEIK
notes: as for B1
Consider B11, for which the binding result in assay [1] and in assay [2] was “binds” each time.

B12: 310P3C5-z12 humanized antibody (antibody, human IgG1, kappa, V domains shown)
VH: QVQLVQSGAEVKKPGASVKVSCKASGYTFTDFYMNWVRQAPGQGLEWIGDANPNNGGTTHNPRFKGQATLTVDKSTSTAYMELRSLRSDDTAVYYCARGGLPGDFDYWGQGTTVTVSS
VL: DIQMTQSPSSVSASVGDRVTITCKASEDIYNRLAWYQQKPGKAPKLLISGVTSLETGVPSRFSGSGSGKDFTLTISSLQPEDFATYYCQQYWSFPWTFGGGTKVEIKR
notes: HU-VH1-4 with HU-VL1-3; human IgG1
On to B12, for which the binding result in assay [3] is “binds”; in assay [4] it was “no binding”; in assay [5], “no binding”; in assay [2], “binds”; in assay [6], “binds”.

Source of the values: patent EP4803151A2 (Lepu Biopharma Co., Ltd., dated 2026).
